The results in this text go back to patent US20160024208A1 (Regeneron, published 2016).

Where a chain is given by its changes, count along the chain named.

In test [1] the target is T1, full-length human Nav1.7 fused at its N-terminus to GFP, expressed in HEK293 cells (human, UniProt Q15858 1-1988).
T1 construct: Voltage-gated sodium channel alpha subunit; In the Western blot it stood as denatured cell lysate; also called hNav 1.7-GFP-HEK293; Nav 1.7-GFP-HEK293; not shown: green fluorescent protein (GFP) at the N-terminus
In words: flow cytometry on Nav1.7-GFP-HEK293, antibody 3.3 nM preincubated with 3.3 uM EC 3-1 peptide as competitor. As to the method: (§1) The specificity of binding of anti-Naᵥ 1.7 human antibodies to full-length Naᵥ 1.7 expressed in HEK293 cells was determined by peptide competition experiments using flow cytometry.
(§2) HEK293 cells stably-transfected with full-length Naᵥ 1.7 fused at its N-terminus to GFP (Naᵥ 1.7-GFP-HEK293) were used for this study. Antibody binding to the transfected cells overexpressing Naᵥ 1.7 was compared to binding in the presence of excess peptide and to binding to the parental HEK293 cell line. To perform the binding experiments, adherent cells were collected using 1 mM EDTA in PBS, washed and re-suspended in cold PBS containing 5% FBS. For each binding experiment the anti-Naᵥ 1.7 antibody at a final concentration of 3.3 nM (in PBS/5% FBS) was added to cells either directly or after incubating for 10 min on ice with a 1000-fold molar excess (3.3 uM final concentration in PBS/5% FBS) of synthetic peptide with sequence corresponding to the loop specificity of the antibody. The antibodies designated as H4H391P, H4H443B, H4H448B, and H1M797N were preincubated as described above with a synthetic peptide corresponding to EC loop 3-1 (amino acid residues 269-338 of SEQ ID NO: 670), whereas the antibodies designated as H4H468P and H1 M852N were preincubated with a synthetic peptide corresponding to EC loop 3-3 (amino acid residues 1333-1382 of SEQ ID NO: 670). The antibody or antibody-peptide mixture was then allowed to incubate with cells for 20 min on ice, followed by addition of 500 uL of cold PBS/5% FBS. Cells were collected by centrifugation, resuspended in 500 uL of cold PBS/5% FBS, and then secondary antibody matched to the antibody isotype (either anti-human-Fc conjugated to Cyanine 5 or anti-mouse-Fc conjugated to allophyococyanin) was added. Binding was detected on the flow cytometry instrument and analyzed as percent binding using the instrument software. For FACS analysis appropriate gating was applied so that only healthy, live cells were counted. Background staining of secondary antibodies alone to Naᵥ 1.7-GFP-HEK293 cells was tested and recorded for all samples, and results ranged between 1-2% binding.
Background: A flow cytometer gives signals particle by particle.

Test [2] concerns the target T1, full-length human Nav1.7 fused at its …. In words: flow cytometry on Nav1.7-GFP-HEK293, antibody 3.3 nM. On the procedure:
as §1, §2

Test [3] deals with T2, Native Nav1.7 (3-1) peptide, rat (rat).
T2 construct: Synthetic peptide; also called Rat Nav1.7 3-1 native
T2 peptide: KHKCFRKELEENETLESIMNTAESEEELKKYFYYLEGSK
In words: SPR, captured antibody, peptide analyte. The method, boiled down: (§3)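 Biacore SPR: antibody captured via Fc on anti-Fc surface, Nav1.7 loop peptides injected as analyte at several concentrations. Double-referenced sensorgrams globally fitted to a 1:1 model; KD = kd/ka, t1/2 = ln2/kd.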
In general terms: SPR reads the build-up and loss of mass on a sensor chip optically.

Test [4] addresses T3, N-Term Biotin Nav1.7 (3-1) peptide, mulatta (mulatta (monkey), not fully specified; N-terminal biotin attached via a G4S linker).
T3 construct: Synthetic peptide; also called Mulatta Nav1.7 3-1 N-term biotin; monkey
T3 peptide: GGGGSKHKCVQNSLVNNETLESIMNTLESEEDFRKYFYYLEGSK
The test is described as follows: SPR, captured antibody, peptide analyte. The method, boiled down: as §3

In test [5] the target is T4, Native Nav1.7 (3-1) peptide, human (human).
T4 construct: Synthetic peptide (Celtek), unbiotinylated; also called Human Nav1.7 3-1 native; Nav1.7 3-1 native peptide
T4 peptide: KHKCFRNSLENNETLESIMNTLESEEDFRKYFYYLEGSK
In words: SPR, captured antibody, peptide analyte. The method, boiled down:
as §3

Test [6] deals with T5, N-Term Biotin Nav1.7 (3-1) peptide, mouse (mouse, not fully specified; N-terminal biotin attached via a G4S linker).
T5 construct: Synthetic peptide; also called Mouse Nav1.7 3-1 N-term biotin
T5 peptide: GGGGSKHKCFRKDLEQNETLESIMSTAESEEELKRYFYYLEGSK
The test is described as follows: SPR, captured antibody, peptide analyte. The method, boiled down:
as §3

Test [7] has as its target T6, Native Nav1.7 (3-3) peptide, human (human).
T6 construct: Synthetic peptide, unbiotinylated; also called Human Nav1.7 3-3 native; Nav1.7 3-3 native peptide
T6 peptide: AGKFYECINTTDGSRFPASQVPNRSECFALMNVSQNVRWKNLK
The test is described as follows: Biacore (second token of ELISA/Biacore summary).

Broadly, the Kd is the equilibrium constant for the complex coming apart. A higher Kd goes with lower affinity.

B1: H1M879N (antibody, V domains shown)
VH: EVQLVESGGGLVKPGGSLRLSCAASGFTFSSYTIHWVRQAPGKGLEWVSSISSSSSYIYYVDSVKGRFTISRDNAKNSVYLQMNSLRAEDTAVYYCATSSITARGYFDYWGQGTLVTVSS
VL: EIVLTQSPATLSLSPGERVTLSCRASQSVSSYLAWYQQKPGQAPRLLIYDASNRATGIPARFSGSGSGTDFTLTISSLEPEDFAVYYCQQRNIWPPTFGQGTKVEIK
notes: Hybridoma-derived
Regarding B1, the “% Binding Nav1.7 + 1000x Peptide (Competition Binding)” value (shortened to “% Binding Nav1.7 + 1000x Peptide”) in test [1] came out at 1.3%. The “% Binding Nav1.7 (Stable Line)” value in test [2] worked out at 63%. In addition, the binding result in test [3] and in test [6] was “no binding” throughout. Besides, the Kd in test [4] is 1.05 nM; in test [5], 4.43 nM. In addition, the values for the t1/2 in test [4] and in test [5] were 11.7 min and 3 min, respectively.

B2: H1H1006B (antibody, V domains shown)
VH: EVQLVESGPGLVKSSETLSLKCTVSGGSISSSGYYWGWIRQPPGKGLEWIGSIHRSGSTFYNPSLKSRVTISVDTSKSQFSLRLTSVTAADTSVYFCGRHGRDYYYGMDVWGQGTTVTVSS
VL: DIQMTQSPSSVSASVGDRVTITCRSSQDINNWLVWYQQKPGKAPKVLIYGASRLQSGVPSRFSGSGSGTDFTLTISSLQPEDFATYYCQQANSFPLTFGGGTKVEIKR
notes: Fully human antibody; also called H4H1006B-1
For the molecule B2, the Kd in test [3] is 33.9 nM; in test [4], 6.1 nM; in test [5] it was 16.4 nM; in test [6], 103 nM. In addition, the t1/2 came out at 0.74 min in test [3], 7.5 min in test [4], 3.3 min in test [5] and 0.62 min in test [6].

B3: H1M836N (antibody, V domains shown)
VH: QVQLVESGGGVVQPGRSLRLSCAASGFTFSSYGMHWVRQAPGKGLEWVAVISYDGNNKYYADSVKGRFTISRDNSKNTLYLQMNSLRAEDTAVYYCAKGSAGYALDYWGQGTLVTVSS
VL: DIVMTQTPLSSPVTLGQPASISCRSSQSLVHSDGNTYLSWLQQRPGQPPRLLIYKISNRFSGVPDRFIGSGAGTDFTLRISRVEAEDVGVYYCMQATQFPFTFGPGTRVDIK
For the molecule B3, the “% Binding Nav1.7 + 1000x Peptide” value in test [1] worked out at 2.2%. In addition, in test [2], the “% Binding Nav1.7 (Stable Line)” value was determined as 68.9%. Besides, the Kd in test [3] is 298 nM; in test [4], 18.1 nM; in test [5] it was 332 nM. Further, the t1/2 turned out to be 0.1 min in test [3], 1.7 min in test [4] and 0.3 min in test [5].

B4: H1M797N (antibody, V domains shown)
VH: QVQLVESGGGVVQPGRSLRLSCAASGFTFSSYGMHWVRQAPGKGLEWVAVISYDGNNKHFADSVKGRFTISRDNSKNTLNLQMNSLRAEDRAVYYCARGASGFVLDIWGQGTMVTVSS
VL: DIVMTQTPLSSPVTLGQPASISCRSSQSLVRSDGNTYLSWLQQRPGQPPRLLIYKISNRFSGVPDRFSGSGAGTDFTLKISRVEAEDVGIYFCMQTTQFPFTFGPGTKVDIK
Take B4: the “% Binding Nav1.7 + 1000x Peptide” value in test [1] turned out to be 10.8%. For the same molecule, the “% Binding Nav1.7 (Stable Line)” value in test [2] was 45.4%. Moreover, the Kd was 2.57 nM in test [3], 0.435 nM in test [4], 0.462 nM in test [5] and 7.4 nM in test [6]. The t1/2 in test [3] worked out at 5.8 min; in test [4], 43.7 min; in test [5] it was 16 min; in test [6] it was 4.6 min.

B5: H1M801N (antibody, V domains shown)
VH: QVQVVESGGGVVQPGRSLRLSCAASGFTFSNYGMHWVRQAPGKGLEWVTVISYDGSNKNYADSVKGRFTISRDNSKNTLYLQMNSLRAEDTAMYYCARGGSGFAFDIWGQGTMVTVSS
VL: B4 VL with E86D, I90V, F92Y
notes: also called H1H801N
For B5, in test [1], the “% Binding Nav1.7 + 1000x Peptide” value is 1.9%. Besides, in test [2], the “% Binding Nav1.7 (Stable Line)” value stood at 49.5%. The Kd was found to be 4.16 nM in test [3], 0.889 nM in test [4], 3.73 nM in test [5] and 3.53 nM in test [6]. The t1/2 in test [3] worked out at 3.6 min; in test [4], 16.8 min; in test [5], 4.3 min; in test [6] it was 4.2 min.

B6: H1M852N (antibody, V domains shown)
VH: QVQLVESGGGVVQPGRSLTLSCAASGFMFNRFGMHWVRQAPGKGLDWVAVIWYDGSNKYYADSVKGRFTISRDNSKNTLYLQVNSLRAEDTAVYYCAREGTPHYYDSSGLDYWGQGTLVTVSS
VL: AIQMTQSPSSLSAYVGDRVTITCRASQDIRNDLGWYQQKPGKAPNLLIYDISSLQSGVPSRFSGSGSGTDFTLTISSLQPEDFATYYCLQDYNYPLTFGGGTKVEIK
notes: constant region may differ; also called H4H852N
For the molecule B6, the Kd in test [7] is more than 200 nM. Besides, the “% Binding Nav1.7 (Stable Line)” value in test [2] is 64.1%.
